Experiments:
[1] = molecular target: T1, VL-Fc (BTB)-F405A-Y407S chain; assay: co-expression in HEK293-EBNA, protein-A purification, non-reducing SDS-PAGE scanning densitometry, impurities omitted
T1 construct: Human IGHG1 Fc chain with the named substitutions (EU numbering), fused to a variable light-chain kappa domain antibody

[2] = molecular target: T2, VL-Fc (BTB)-F405A-K409R chain; assay: as above
T2 construct: Human IGHG1 Fc chain with the named substitutions (EU numbering), fused to a variable light-chain kappa domain antibody

[3] = molecular target: T3, VL-Fc (BTB)-Y407S-K409R chain; assay: as above
T3 construct: Human IGHG1 Fc chain with the named substitutions (EU numbering), fused to a variable light-chain kappa domain antibody

[4] = molecular target: T4, VL-Fc (BTB)-F405A-Y407S-K409R-T411R chain; assay: as above
T4 construct: Human IGHG1 Fc chain with the named substitutions (EU numbering), fused to a variable light-chain kappa domain antibody

[5] = molecular target: T5, VL-Fc (BTB)-F405A-Y407S-K409R chain; assay: as above
T5 construct: Human IGHG1 Fc chain with the named substitutions (EU numbering), fused to a variable light-chain kappa domain antibody

[6] = molecular target: T6, VL-Fc (BTB)-K409R-T411R chain; assay: as above
T6 construct: Human IGHG1 Fc chain with the named substitutions (EU numbering), fused to a variable light-chain kappa domain antibody

VL-BT gamma chain = assay: co-expression in HEK293-EBNA, protein-A purification, non-reducing SDS-PAGE scanning densitometry
VL-BT beta F405A chain = assay: as above
VL-Fc IGHGA chain = molecular target: T7, VL-Fc IGHGA chain; assay: as above
T7 construct: Human IGHG1 Fc chain with CH3 substitutions S364T, K392L, T394W, K409I, T411R (EU numbering), fused to VL

[7] = molecular target: T8, human CD19 cell-surface protein (on Raji cells) (human, UniProt P15391 20-556); assay: flow cytometry on Raji cells (CD19+ VLA2-), 10 µg/ml, detected by c-myc tag (FIG. 31A) and by His tag (FIG. 31B)
T8 construct: whole, on cells; also called hCD19
T8 sequence (looked up): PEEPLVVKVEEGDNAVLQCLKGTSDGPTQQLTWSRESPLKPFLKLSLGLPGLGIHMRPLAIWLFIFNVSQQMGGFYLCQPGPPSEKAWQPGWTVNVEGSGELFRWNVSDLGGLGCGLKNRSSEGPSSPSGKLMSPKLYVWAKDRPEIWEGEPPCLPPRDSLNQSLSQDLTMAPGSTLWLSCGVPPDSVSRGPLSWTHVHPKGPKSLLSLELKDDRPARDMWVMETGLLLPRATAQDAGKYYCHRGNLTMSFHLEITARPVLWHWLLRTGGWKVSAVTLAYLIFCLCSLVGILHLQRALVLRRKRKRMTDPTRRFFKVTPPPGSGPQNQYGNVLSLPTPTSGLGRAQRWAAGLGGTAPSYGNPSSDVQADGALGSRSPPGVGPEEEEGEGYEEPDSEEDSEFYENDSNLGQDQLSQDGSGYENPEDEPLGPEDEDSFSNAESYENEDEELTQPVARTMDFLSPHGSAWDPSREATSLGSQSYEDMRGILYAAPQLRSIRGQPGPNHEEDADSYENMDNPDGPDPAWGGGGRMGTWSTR

[8] = molecular target: T8, human CD19 cell-surface protein (on …); assay: flow cytometry on Raji cells, detected with mouse anti His tag antibody
[9] = molecular target: T9, alpha 2 subunit of the human VLA-2 receptor (on HT1080 cells) (human, UniProt P17301 30-1181); assay: flow cytometry on HT1080 cells, detected with mouse anti c-myc tag antibody
T9 construct: whole, on cells; also called hVLA2

Binder	hetero-dimer formation percentage [1] [%]	hetero-dimer formation percentage [2] [%]	hetero-dimer formation percentage [3] [%]	hetero-dimer formation percentage [4] [%]	hetero-dimer formation percentage [5] [%]	also measured
Fc (BTA)-F405S-Y407V-K409W-T411N chain (other, Human IGHG1 Fc chain with the named substitutions (EU numbering)) DKTHTCPPCPAPELLGGPSVFLFPPKPKDTLMISRTPEVTCVVVDVSHEDPEVKFNWYVDGVEVHNAKTKPREEQYNSTYRVVSVLTVLHQDWLNGKEYKCKVSNKALPAPIEKTISKAKGQPREPQVYTLPPSRDELTKNQVSLTCLVKGFYPSDIAVEWESNGQPENNYKTTPPVLDSDGSFSLVSWLNVDKSRWQQGNVFSCSVMHEALHNHYTQKSLSLSPGK	7	4	5	9	15	–
Fc (BTA)-S364K-T366V-K370T-K392Y-K409W-T411N chain (other, Human IGHG1 Fc chain with the named substitutions (EU numbering)) DKTHTCPPCPAPELLGGPSVFLFPPKPKDTLMISRTPEVTCVVVDVSHEDPEVKFNWYVDGVEVHNAKTKPREEQYNSTYRVVSVLTVLHQDWLNGKEYKCKVSNKALPAPIEKTISKAKGQPREPQVYTLPPSRDELTKNQVKLVCLVTGFYPSDIAVEWESNGQPENNYYTTPPVLDSDGSFFLYSWLNVDKSRWQQGNVFSCSVMHEALHNHYTQKSLSLSPGK	90	60	74	88	72	hetero-dimer formation percentage [6]: 32%
Fc (BTA)-Y407V-K409W-T411N chain (other, Human IGHG1 Fc chain with the named substitutions (EU numbering)) DKTHTCPPCPAPELLGGPSVFLFPPKPKDTLMISRTPEVTCVVVDVSHEDPEVKFNWYVDGVEVHNAKTKPREEQYNSTYRVVSVLTVLHQDWLNGKEYKCKVSNKALPAPIEKTISKAKGQPREPQVYTLPPSRDELTKNQVSLTCLVKGFYPSDIAVEWESNGQPENNYKTTPPVLDSDGSFFLVSWLNVDKSRWQQGNVFSCSVMHEALHNHYTQKSLSLSPGK	50	25	25	53	52	–
BT delta chain (other) DKTHTCPPCPAPELLGGPSVFLFPPKPKDTLMISRTPEVTCVVVDVSHEDPEVKFNWYVDGVEVHNAKTKPREEQYNSTYRVVSVLTVLHQDWLNGKEYKCKVSNKALPAPIEKTISKAKGQPREPQVYTMPPSRDELTKNQVNLACLVKEFYPSDIAVEWESNGQPENNYFTAPPVLSSDGSFNLVSLLKVDKSRWQQGNVFSCSVMHEALHNHYTQKSLSLSPGK	–	–	–	–	–	hetero-dimer percent of the protein-A purified material (VL-BT gamma chain): ≥ 52.1%
BT alpha IGHG3 chain (other) DKTHTCPPCPAPELLGGPSVFLFPPKPKDTLMISRTPEVTCVVVDVSHEDPEVKFNWYVDGVEVHNAKTKPREEQYNSTYRVVSVLTVLHQDWLNGKEYKCKVSNKALPAPIEKTISKAKGQPREPQVYTLPPSREEMTKNQVKLVCLVTGFYPSDIAVEWESSGQPENNYYTTPPMLDSDGSFSLVSWLNVDKSRWQQGNIFSCSVMHEALHNRFTQKSLSLSPGK	–	–	–	–	–	hetero-dimer percent of the protein-A purified material (VL-BT beta F405A chain): ≥ 91%
Fc IGHAG chain (other, Human IGHG1 Fc chain with CH3 substitutions Q347E, Y349H, K370R, V397R, D399E, F405A, Y407T (EU numbering)) DKTHTCPPCPAPELLGGPSVFLFPPKPKDTLMISRTPEVTCVVVDVSHEDPEVKFNWYVDGVEVHNAKTKPREEQYNSTYRVVSVLTVLHQDWLNGKEYKCKVSNKALPAPIEKTISKAKGQPREPEVHTLPPSRDELTKNQVSLTCLVRGFYPSDIAVEWESNGQPENNYKTTPPRLESDGSFALTSKLTVDKSRWQQGNVFSCSVMHEALHNHYTQKSLSLSPGK	–	–	–	–	–	hetero-dimer percent of the protein-A purified material (VL-Fc IGHGA chain): ≥ 54%
anti-hCD19_anti-hVLA2 bispecific antibody (bispecific antibody, human IgG1, kappa, Four distinct chains; also called anti-hCD19_anti-VLA2 bispecific antibody) heavy 1: QVQLQESGPGLVKPSETLSLTCTVSGFSLTNYGIHWIRQPPGKGLEWLGVIWARGFTNYNSALMSRLTISKDNSKNQVSLKLSSVTAADTAVYYCARANDGVYYAMDYWGQGTLVTVSSASTKGPSVFPLAPSSKSTSGGTAALGCLVKDYFPEPVTVSWNSGALTSGVHTFPAVLQSSGLYSLSSVVTVPSSSLGTQTYICNVNHKPSNTKVDKKVEPKSCDKTHTCPPCPAPELLGGPSVFLFPPKPKDTLMISRTPEVTCVVVDVSHEDPEVKFNWYVDGVEVHNAKTKPREEQYNSTYRVVSVLTVLHQDWLNGKEYKCKVSNKALPAPIEKTISKAKGQPREPQVYTLPPSRDELTKNQVKLVCLVTGFYPSDIAVEWESNGQPENNYYTTPPVLDSDGSFSLVSWLNVDKSRWQQGNVFSCSVMHEALHNHYTQKSLSLSPGKHHHHHH light 1: DFVMTQSPAFLSVTPGEKVTITCSAQSSVNYIHWYQQKPDQAPKKLIYDTSKLASGVPSRFSGSGSGTDYTFTISSLEAEDAATYYCQQWTTNPLTFGQGTKVEIKRTVAAPSVFIFPPSDEQLKSGTASVVCLLNNFYPREAKVQWKVDNALQSGNSQESVTEQDSKDSTYSLSSTLTLSKADYEKHKVYACEVTHQGLSSPVTKSFNRGEC heavy 2: QVQLVQSGGGVVQPGRSLRLSCAASGVSLPDYGVSWVRQAPGKGLEWVAVIWGSETTYYNSALKSRFTISRDNSKNTLYLQMNSLRAEDTAVYYCAKHYYYGGSYAMDYWGQGTLVTVSSASTKGPSVFPMAPSSKSTSGGTANLACLVKEYFPEPVTVSWNSGALTSGVFTAPAVLSSSGLYNLVSLVKVPSSSLGTQTYICNVNHKPSNTKVDKKVEPKSCDKTHTCPPCPAPELLGGPSVFLFPPKPKDTLMISRTPEVTCVVVDVSHEDPEVKFNWYVDGVEVHNAKTKPREEQYNSTYRVVSVLTVLHQDWLNGKEYKCKVSNKALPAPIEKTISKAKGQPREPEVATFPPSRDELTKNQVTLVCLVTGFYPSDIAVEWESNGQPENNYKTDPPLLESDGSFALSSRLRVDKSRWQQGNVFSCSVMHEALHNHYTQKSLSLSPGKEQKLISEEDLN light 2: DIQMTQSPSSLSASVGDRVTITCRASQDISKYLNWYQQKPGKAIKLLIYHTSRLHSGVPSRFSGSGSGTDFTLTISSLQPEDFATYYCQQGATLPYTFGPGTKVDIKRTVAAPKVTIFPPSDEQLKSGTATVLCLLEKFYPREAKVQWKVDNALQSGNSQEGVMEQDSKDSTYMLFSWLTLSKADYEKHKVYACEVTHQGLSSPVTKSFNRGEC	–	–	–	–	–	binding result [7]: binds
anti-hVLA2 antibody (antibody, human IgG1, kappa, V domains shown, Control with a single specificity, obtained by co-transfection of chain one with chain two of the bispecific antibody) VH: QVQLQESGPGLVKPSETLSLTCTVSGFSLTNYGIHWIRQPPGKGLEWLGVIWARGFTNYNSALMSRLTISKDNSKNQVSLKLSSVTAADTAVYYCARANDGVYYAMDYWGQGTLVTVSS VL: DFVMTQSPAFLSVTPGEKVTITCSAQSSVNYIHWYQQKPDQAPKKLIYDTSKLASGVPSRFSGSGSGTDYTFTISSLEAEDAATYYCQQWTTNPLTFGQGTKVEIKR	–	–	–	–	–	binding result [8]: no binding
anti-hCD19 antibody (antibody, human IgG1, V domains shown, Control with a single specificity, obtained by co-transfection of chain three with chain four of the bispecific antibody) VH: QVQLVQSGGGVVQPGRSLRLSCAASGVSLPDYGVSWVRQAPGKGLEWVAVIWGSETTYYNSALKSRFTISRDNSKNTLYLQMNSLRAEDTAVYYCAKHYYYGGSYAMDYWGQGTLVTVSS VL: DIQMTQSPSSLSASVGDRVTITCRASQDISKYLNWYQQKPGKAIKLLIYHTSRLHSGVPSRFSGSGSGTDFTLTISSLQPEDFATYYCQQGATLPYTFGPGTKVDIKR	–	–	–	–	–	binding result [9]: no binding

From patent US20130178605A1 (GLENMARK PHARMACEUTICALS S A, published 2013)
